Assay results as given in patent US20210198647A1 (TEXAS TECH UNIVERSITY SYSTEM, published 2021).
Ends that are not written are not given here.

B1: His-Trp (peptide)
peptide: HW
B2: His-Pro (peptide)
peptide: HP
B3: His-Phe (peptide)
peptide: HF
B4: NlnA#1, NSC 374121, L-histidyl-L-tyrosine (peptide)
peptide: HY
B5: NlnA#2, NSC 523374, D,L-histidyl-D,L-histidine (peptide)
peptide: His-His
modifications: also: mixture of D- and L-His at both positions

Columns and labels:
Assay in all cases: cell-based or functional assay
[1] = biological target: Neurolysin (Nln) as used for the A50 and Amax values of Tables 2 and 5
[2] = biological target: recombinant human angiotensin converting enzyme (R & D systems, product number 929-ZN) (human, UniProt P12821 30-1261)
[3] = biological target: recombinant human neprilysin (R & D systems, product number 1182-ZNC) (human, UniProt P08473 52-750)
[4] = biological target: recombinant human ACE2 (R & D systems, product number 933-ZN) (human, UniProt Q9BYF1 18-740)
[5] = biological target: recombinant human thimet oligopeptidase (R & D systems, product number 3439-ZN) (human, UniProt P52888 1-689, limits assumed)
Sequence of recombinant human thimet oligopeptidase (R & D systems, product number 3439-ZN) (P52888 whole entry): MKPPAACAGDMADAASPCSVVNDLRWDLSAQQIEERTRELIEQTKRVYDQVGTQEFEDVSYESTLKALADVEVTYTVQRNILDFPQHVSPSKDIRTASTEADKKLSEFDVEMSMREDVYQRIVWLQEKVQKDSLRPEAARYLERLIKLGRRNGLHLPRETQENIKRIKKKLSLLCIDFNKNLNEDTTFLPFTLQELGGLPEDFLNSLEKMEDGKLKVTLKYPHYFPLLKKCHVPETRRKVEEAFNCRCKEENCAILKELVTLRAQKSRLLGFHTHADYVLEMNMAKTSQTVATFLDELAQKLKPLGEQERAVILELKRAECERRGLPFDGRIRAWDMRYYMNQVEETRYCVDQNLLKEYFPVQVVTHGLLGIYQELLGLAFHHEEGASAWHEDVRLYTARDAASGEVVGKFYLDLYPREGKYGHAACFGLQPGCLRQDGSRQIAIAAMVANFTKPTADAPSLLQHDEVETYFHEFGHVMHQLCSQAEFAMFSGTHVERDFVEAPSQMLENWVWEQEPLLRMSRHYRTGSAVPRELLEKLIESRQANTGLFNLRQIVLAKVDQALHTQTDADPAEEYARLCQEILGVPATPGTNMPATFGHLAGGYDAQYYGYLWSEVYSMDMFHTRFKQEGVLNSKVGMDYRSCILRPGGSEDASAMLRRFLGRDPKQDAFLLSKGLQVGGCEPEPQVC

Sequence of recombinant human neprilysin (R & D systems, product number 1182-ZNC) (P08473 52-750 limits assumed): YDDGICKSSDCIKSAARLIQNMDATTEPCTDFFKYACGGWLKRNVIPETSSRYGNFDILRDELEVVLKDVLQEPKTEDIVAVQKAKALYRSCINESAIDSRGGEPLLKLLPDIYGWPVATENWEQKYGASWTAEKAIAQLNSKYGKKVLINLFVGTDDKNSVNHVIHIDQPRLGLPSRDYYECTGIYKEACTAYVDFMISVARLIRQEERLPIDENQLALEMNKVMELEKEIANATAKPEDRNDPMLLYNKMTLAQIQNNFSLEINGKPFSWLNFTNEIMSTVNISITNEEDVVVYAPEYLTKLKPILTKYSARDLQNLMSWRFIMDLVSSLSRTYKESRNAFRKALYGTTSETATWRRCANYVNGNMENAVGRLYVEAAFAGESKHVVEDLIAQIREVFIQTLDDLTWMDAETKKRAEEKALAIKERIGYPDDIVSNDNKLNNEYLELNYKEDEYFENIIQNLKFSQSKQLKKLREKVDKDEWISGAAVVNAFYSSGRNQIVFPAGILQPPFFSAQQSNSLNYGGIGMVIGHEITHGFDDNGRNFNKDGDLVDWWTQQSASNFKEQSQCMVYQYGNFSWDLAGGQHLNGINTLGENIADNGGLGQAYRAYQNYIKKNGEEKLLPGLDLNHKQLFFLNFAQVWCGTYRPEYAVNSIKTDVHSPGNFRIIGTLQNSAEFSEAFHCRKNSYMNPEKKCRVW
Sequence of recombinant human ACE2 (R & D systems, product number 933-ZN) (Q9BYF1 18-740 limits assumed): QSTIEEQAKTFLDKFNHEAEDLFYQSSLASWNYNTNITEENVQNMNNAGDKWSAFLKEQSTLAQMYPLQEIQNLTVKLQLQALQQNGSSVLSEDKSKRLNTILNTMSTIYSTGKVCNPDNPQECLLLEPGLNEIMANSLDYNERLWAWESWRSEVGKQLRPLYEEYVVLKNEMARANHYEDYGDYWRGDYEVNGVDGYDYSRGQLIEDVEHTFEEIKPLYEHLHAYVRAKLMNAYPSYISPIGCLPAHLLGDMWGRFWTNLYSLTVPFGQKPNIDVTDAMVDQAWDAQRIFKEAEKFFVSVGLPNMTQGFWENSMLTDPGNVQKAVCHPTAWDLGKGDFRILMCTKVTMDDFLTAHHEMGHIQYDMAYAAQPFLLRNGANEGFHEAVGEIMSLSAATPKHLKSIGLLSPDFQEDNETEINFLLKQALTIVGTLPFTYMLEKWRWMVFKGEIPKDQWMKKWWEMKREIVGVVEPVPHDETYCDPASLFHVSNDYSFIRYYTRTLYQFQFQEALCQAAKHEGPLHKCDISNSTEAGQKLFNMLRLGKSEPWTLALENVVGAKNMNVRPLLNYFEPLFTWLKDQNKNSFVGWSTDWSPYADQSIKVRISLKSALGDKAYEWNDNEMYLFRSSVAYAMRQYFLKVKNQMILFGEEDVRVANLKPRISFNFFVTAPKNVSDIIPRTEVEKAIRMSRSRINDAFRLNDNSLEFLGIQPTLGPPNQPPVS
Sequence of recombinant human angiotensin converting enzyme (R & D systems, product number 929-ZN) (P12821 30-1261 limits assumed): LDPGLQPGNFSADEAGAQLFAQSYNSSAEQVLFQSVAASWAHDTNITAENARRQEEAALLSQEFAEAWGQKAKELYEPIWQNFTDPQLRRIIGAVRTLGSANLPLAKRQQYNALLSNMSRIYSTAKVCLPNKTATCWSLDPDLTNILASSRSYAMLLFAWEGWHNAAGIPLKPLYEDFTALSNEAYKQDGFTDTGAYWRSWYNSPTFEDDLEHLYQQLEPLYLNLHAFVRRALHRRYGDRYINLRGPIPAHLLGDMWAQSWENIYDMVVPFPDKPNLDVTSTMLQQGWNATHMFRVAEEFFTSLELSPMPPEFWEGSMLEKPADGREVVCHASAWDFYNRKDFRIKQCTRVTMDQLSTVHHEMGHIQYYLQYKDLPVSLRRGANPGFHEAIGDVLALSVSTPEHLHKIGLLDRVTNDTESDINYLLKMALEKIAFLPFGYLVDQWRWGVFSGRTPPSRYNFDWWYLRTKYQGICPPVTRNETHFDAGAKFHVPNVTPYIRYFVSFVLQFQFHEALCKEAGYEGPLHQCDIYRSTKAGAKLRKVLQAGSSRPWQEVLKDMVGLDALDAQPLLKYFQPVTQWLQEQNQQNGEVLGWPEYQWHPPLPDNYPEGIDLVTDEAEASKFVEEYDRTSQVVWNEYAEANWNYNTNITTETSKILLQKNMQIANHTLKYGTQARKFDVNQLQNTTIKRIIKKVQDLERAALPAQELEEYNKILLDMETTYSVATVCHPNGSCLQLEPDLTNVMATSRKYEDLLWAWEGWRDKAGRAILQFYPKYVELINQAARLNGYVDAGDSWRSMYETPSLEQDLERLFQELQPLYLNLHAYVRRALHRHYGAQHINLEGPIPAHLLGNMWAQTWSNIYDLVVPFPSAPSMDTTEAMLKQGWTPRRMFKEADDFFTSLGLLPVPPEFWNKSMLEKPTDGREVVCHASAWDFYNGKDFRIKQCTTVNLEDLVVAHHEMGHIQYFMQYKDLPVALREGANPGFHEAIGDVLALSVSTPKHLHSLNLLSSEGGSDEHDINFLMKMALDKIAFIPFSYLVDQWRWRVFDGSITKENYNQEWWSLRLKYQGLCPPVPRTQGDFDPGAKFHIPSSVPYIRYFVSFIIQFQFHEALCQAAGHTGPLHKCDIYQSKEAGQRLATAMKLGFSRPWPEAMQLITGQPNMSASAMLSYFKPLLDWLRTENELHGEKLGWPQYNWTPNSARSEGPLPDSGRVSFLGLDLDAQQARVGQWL

Amax [1] [%]	A50 [1] [µM]	inhibition of activity at 300 µM (quenched fluorescent substrate hydrolysis) [2] [%]	inhibition of activity at 300 µM (quenched fluorescent substrate hydrolysis) [3] [%]	inhibition of activity at 300 µM (quenched fluorescent substrate hydrolysis) [4] [%]	inhibition of activity at 300 µM (quenched fluorescent substrate hydrolysis) [5] [%]	Binder
440						B1
502						B2
573	130					B3
467		22.6	2.9	13.4	25.9	B4
		12.2	1.6	10.9	15.6	B5
